Laboratory results reported in patent publication US20070003557A1, “Method for treating cancer using premedication” (priority 2005, published 2007).
“Also recorded” adds a separate entry of the source.

Columns and labels:
Format in all cases: in vivo, human
[1] = Infusion reactions caused by KM-871 in one patient, premedication before second and third administration (Example 5)
Protocol: On the day of the second administration of KM-871, Benadryl (100 mg), Zantac (50 mg), Singulair (10 mg), Zyrtec (10 mg) and Dexametazone (10 mg) were administered to the patient followed by the administration of KM-871.
Prior to the third administration of KM-871, Benadryl (100 mg), Zantac (50 mg), Singulair (10 mg), and Zyrtec (10 mg), were administered to the patient.

[2] = Infusion reactions caused by KM-871 in patients, premedication with Sigulair and Zertec (Example 2); details: per patient
Protocol: (§1) The following test was performed by using various compounds to suppress the infusion reactions caused by KM-871.
KM-871 was administered to each patient with a dose of 40 mg/m^2 once every two weeks for four times as a general rule. Sigulair (10 mg) and Zertec (10 mg) were orally administered to the patient 30 minutes prior to each administration of KM-871 except for the first administration.
(§2) As a test dose, KM-871 (10 mg/m^2), was administered to the patient two weeks prior to the first administration of KM-871 to confirm its safeness.

[3] = Infusion reactions caused by KM-871 in patients, premedication with Sigulair, Zertec, Benadryl and Zantac (Example 3); details: per patient, KM-871 40 mg/m^2 every two weeks, Sigulair 10 mg, Zertec 10 mg orally and Benadryl 50 mg, Zantac 50 mg parenterally 30 min before, at the administrations named in column Pre-medication
Protocol: as §1
KM-871 was administered to each patient with a dose of 40 mg/m^2 once every two weeks for four times as a general rule. Sigulair (10 mg) and Zertec (10 mg) were orally administered and Benadryl (50 mg) and Zantac (50 mg) were parenterally administered to the patient 30 minutes prior to each administration of KM-871 except for the first administration.
as §2

[4] = Infusion reactions caused by KM-871 in patients, premedication with Benadryl and Zantac (Example 1); details: per patient; for Infusion reaction, 1st administration / Infusion reaction, 2nd administration / Infusion reaction, 3rd administration: KM-871 40 mg/m^2 every two weeks, Benadryl 50 mg and Zantac 50 mg parenterally 30 min before, at the administrations named in column Pre-medication; for Infusion reaction, Test: KM-871 test dose 10 mg/m^2 two weeks prior to 1st administration
Protocol: The following test was performed to suppress the infusion reactions caused by human anti-GD3 chimeric antibody.
A human chimeric antibody which specifically binds to ganglioside GD3, wherein the human chimeric antibody comprises the H chain V region of the antibody comprising the amino acid sequence represented by SEQ ID NO:3 and the L chain V region of the antibody comprising the amino acid sequence represented by SEQ ID NO:4 was produced according to U.S. Pat. No. 6,437,098 (hereinafter referred to as ‘KM-871’).
KM-871 was administered to each patient with a dose of 40 mg/m^2 once every two weeks for four times as a general rule. Benadryl (50 mg) and Zantac (50 mg) were parenterally administered to the patient 30 minutes prior to each administration of KM-871 except for the first administration.
as §2

[5] = Infusion reactions caused by KM-871 in patients, premedication with Sigulair, Zertec, Benadryl, Zantac and Dexametazone (Example 4); details: one patient
Protocol: as §1
KM-871 was administered to each patient with a dose of 40 mg/m^2 or 80 mg/m^2 every two weeks for four times as a general rule. Sigulair (10 mg) and Zertec (10 mg) were orally administered and Benadryl (50 mg), Zantac (50 mg) and Dexametazone (20 mg) were parenterally administered to the patient 30 minutes prior to each administration of KM-871 except for the first administration.
As a test dose, KM-871 (10 mg/m^2), was administered to the patient two weeks prior to the first administration of KM-871 to confirm its safeness. When toxicity or infusion reactions are observed to the patient by the administration, the administration was withdrawn.

[6] = KM-871 40 mg/m^2 every two weeks, Sigulair 10 mg and Zertec 10 mg orally 30 min before, at the administrations named in column Pre-medication
[7] = KM-871 test dose 10 mg/m^2 two weeks prior to 1st administration
[8] = premedication at 1st administration
[9] = premedication at 1st and 2nd administration
[10] = premedication at 2nd administration

B1: KM-871: human chimeric antibody binding ganglioside GD3; H chain V region SEQ ID NO:3, L chain V region SEQ ID NO:4; produced per U.S. Pat. No. 6,437,098 (antibody, V domains shown)
VH: EVQLVESGGDFVQPGGSLRVSCAASGFAFSHYAMSWVRQAPGKGLEWVAYISSGGSGTYYSDSVKGRFTISRDNSKNTLYLQMRSLRAEDSAVYFCTRVKLGTYYFDSWGQGTLLTVSS
VL: DIQMTQSPSSLSASVGDRVTITCSASQDISNYLNWYQQKPDKAPKLLIFYSSNLHSGVPSRFSGGGSGTDYTLTISSLQPEDIATYFCHQYSKLPWTFGQGTKVEIKR
modifications: Artificial Sequence H chain V region of the antibody; Artificial Sequence L chain V region of the antibody
- Infusion reactions at the first administration ([1]; 4 mg/m^2 of KM-871, no premedication stated): Rash, Urticaria, Itching
- Infusion reactions after the third administration ([1]; premedication Benadryl 100 mg, Zantac 50 mg, Singulair 10 mg and Zyrtec 10 mg before KM-871): infusion reactions did not appear
- Infusion reactions after the second administration ([1]; premedication Benadryl 100 mg, Zantac 50 mg, Singulair 10 mg, Zyrtec 10 mg and Dexametazone 10 mg the same day before KM-871): infusion reactions did not appear
- Infusion reaction, 1st administration [2, 6]: CHILLS; also recorded: THROAT SWELLING; also recorded: ITCHING/HIVES
- Infusion reaction, 2nd administration [2, 6]: HIVES
- Infusion reaction, 3rd administration [2, 6]: HIVES ON HANDS
- Infusion reaction, Test [2, 7]: FACIAL FLUSHING; also recorded: HIVES/ITCHING
- Infusion reaction, 2nd administration [3]: ITCHING
- Infusion reaction, 1st administration ([3]; premedication at 1st, 2nd and 3rd administrations): HIVES; also recorded: ITCHING
- Infusion reaction, 1st administration ([3]; premedication at 2nd and 4th administrations): FEVER; also recorded: HIVES/ITCHING
- Infusion reaction, 1st administration ([3]; premedication at 2nd, 3rd and 4th administrations): FEVER
- Infusion reaction, 1st administration [4, 8]: ARMS, LEGS, ERYTHEMA; also recorded: FEVER; also recorded: RIGORS
- Infusion reaction, 2nd administration [4, 8]: CHILLS; also recorded: FEVER
- Infusion reaction, 3rd administration [4, 8]: HIVES
- Infusion reaction, 1st administration [4, 9]: FULLNESS IN THROAT
- Infusion reaction, 2nd administration [4, 9]: HIVES
- Infusion reaction, 1st administration [4, 10]: ITCHING; also recorded: RIGORS
- Infusion reaction, 3rd administration [4, 10]: CHILLS
- Infusion reaction, Test [4, 8]: FEVER; also recorded: HIVES
- Infusion reaction, Test [4, 9]: ITCHING
- Infusion reaction, 1st administration ([5]; KM-871 40 mg/m^2 or 80 mg/m^2 every two weeks, premedication (Sigulair, Zertec, Benadryl, Zantac, Dexametazone) at 2nd administration): HIVES
- Infusion reaction, Test [5, 7]: RASH
